This data set can be described thus: label from the status in PepcDB records.
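Further: failed if final PepcDB status was selected cloned or expressed and not failed if soluble or beyond.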

As for “MKPVKVGICGLGTVGGGTFNVLQRNAEEIARRAGRGIEVAQIAVRTPNPNCQIGSTPTTSDVFAVATNPEIDIVVELIGGYTLARELVLKAIENGKHVVTANKALIAVHGNEIFAKAREKGVIVAFEAAVAGGIPVIKAIREGLSANRINWVAGIINGTGNFILTEMREKGRTFPDVLAEAQALGYAEVDPTFDVEGIDAAHKLTILASIAFGIPLQFDKAYTEGITKLTTADVNYAEALGYRIKHLGVARSTAQGIELRVHPTLIPADRLIANVNGVMNAVMVNGDASGSTLFYGAGAGMEPTASSVVADLVDVVRAMTSDPENRVPHLAFQPDSLSAHPILPIEACESAYYLRIQAKDHPGVLAQVASILSERGINIESIMQKEVEEHDGLVPMILLTHRVVEQRINDAIQALEALQDVVGPVVRIRVEHLN”, the protein production entry is “not failed”. For “MKQFGGPVLFLDRSDINTDEIIPAKYLTEITKEDLKPYILEDLKLPGFDPKGEKTKTARVVVSRANFGCGSSREHAPWVFEVNGITAVIAESFARIFRQNMFNCGMAAIELSADTIEGLFTYAGCADAAISIDVAGQTLTISGGGTSETHSFDISPFDKALVLAGGWVDYADSKY”, the protein production entry was “failed”.

Take “MKQFVLFFISLFLLGVGARSQEMYQKKVFISSRGDSLNYRLLRPEVEKTGLQYPLVLFLHGAGERGSDNEKQLTHGGQMFLNPVNREKYPAFVLVPQCPEKDYWAYTSRPSSFIPSEMPVGQEITPVLRAVKELLDTYLDLPQVDRNRIYVVGLSMGGMATYDLAVRFPDTFAAAVPICGTVNPVRLADAANVRFRIFHGDADNVVPVEGSREAYKALKNLGAEVEYIEFPGCNHGSWNPAFNYPGFMEWLFAQRKR”: the protein production result is given as “failed”.

Turning to “MKQIIIAIGREFGSGGHLVAKKLAEHYNIPLYSKELLDEVAKDGRYSKEVLERFDEKPMNFAFIPVPAGGTTISLEQDIAIRQFNFIRKKANEEKESFVIVGRCAEEILSDNPNMISAFILGDKDTKTKRVMEREGVDEKTALNMMKKMDKMRKVYHNFYCESKWGDSRTYDICIKIGKVDVDTATDMIIKYIDSRDN”, the protein production result is listed as “not failed”.

With “MKQKDLKRAYNNVLAQAISGSKQYLFAGNLFGDIFVLRIKELDKGSEEPPGKLKIFPQGSDVDINYLAFHRDFLIVGAVGLIYGLEWNEEEESLATKRSWEVKIPMQVDAVEVPDVNSMWLDSENSILFAGCGDGVIYQVSLEDGRIQREYRGHTDYVHSVVGNANGQIFSGAEDGTVRVWSTKQQQHTSMLEPYKNPNLLRPDWGKWIGAVAVNEDWLLCGGGPKASIFHLRSMESTCVFSFPGRVHLCDFVDDCVLIGGEHNHVQSYTLNGVLQANIPVEHTACYSAVWQTSPIKFISIAGFSNKLHILKDFRFLDSKIEMYGNVEGEENDPEEEDELIEKPLTVEAA”, the protein production result is “failed”.

In the case of “MKQKSQMETRFVKPLSCLTLSIITTIGILPPATAQETSPAKSACEQVLSNAEQKPLTKQVQKLAQFADPQQERSQMIQQANALFSQGDLPGAEENLCKFLKKYSDDAFGHFQLGNVFFRGKKVEAAISAYQEAIRLRSRYAVAYNALGIVYASQSRWSEAIVQYQKALEINPDYGDALTNVALALWQTNKKDEALASLEKALNIFKKQNRNEKANQVEQLLQRIKNSDDNLS”, the protein production entry is “failed”.

For the sequence “MKQLLLGRNALFGLLGAIAVLTVVPVATIMPAYAVDDIEGADAPDLTAVQAKIAAKDYKGALAELRDLAQDNQQADVYNLLGFTLRKTGDVTTALTYYNKALELKPDHKAAREYLGELYVETGDMNKAKEQLASLQKLCPAGCEELSDLQKAIDTKVTQ”, the protein production entry is “failed”.

“MKQNLVAVDILLNQMRDRNIKLDSFVVSAIIETNCDRCRTEGASLAFDYSLEMGIHLKKSAYLALIGNFLRSNELPKVIEVVKEMVKAQHSLGCYQGAMLIHRLGFGRRPRLAADVFDLLPDDQKGVAAYTALMDVYISAGSPEKAMKILREMREREIMPSLGTYDVLLSGLEKTSDFQKEVALLRKEKKSLVASARFRENVHVEDKICDLLFATNLL”: the protein production entry is recorded as “failed”. In the case of “MKQQKGVALITILVMVALATILAATIAKHQGNTAESTGYLMRQNQSLLYAKSAEAFFSELLIQDAENSPDVDHLAETWAQPMPPFPVEDGFVSGTLRDESGKFNLNNLVNADGTPNPAAQLWFEQLLVRVGLPAELSQAVIDWQDPDDQITGAMGAESNYYQGLSHPYLAANSKFQSVDELRLVRGFEGKKFDLIRPYISALPSVSTTKVNINTAPALLLASIDKNLDINAVQVALKEKMANLGYFKSVDELWALDAFKNIDQDSKTKISTLLDVKSSYFKAYIEVVLSERKRQFTSDLMRNNKKVYVYSRSLTPIFDIPQN”, the protein production result is listed as “failed”. For “MKQRIPTLLAGACLAIPLHALGAADLLVVNARIFTANPQQPFAEALAVEDGRILAVGDEAGLRALADGDSQVVDLGGKRLMPGLIDTHSHAVFGGLELAGADMGNEQVGLDELERRLRAWRDNGKARHGDMLNVSGMHTAYWSQVKDFRARFDHGEWADQPLAFIGSDHHTGWANAAMLKRAGIDAARVRALPEEQRNTIGHDADATPNGFLADAGLDAVLAVLPAPSAEQMLEAGRSAVRYSNSLGLTAWMDPAANGSPGDALFSLRPDENTVGVLPVYHRLAKGGELSAHVAALLVANPRSRPTDLEVLDKVRQRFLGSPNLTLPGIKVFADGVPEYPAQTAALLEPYRNSRKTGELLIDPAHFGELVSAADARGWLVHVHAIGDRAVREALNGMQQARRDRDSGIAHSITHLQLVNPKEFERFRPLGVIASMQLYWAAADETTVDLMKPYISAFAYRYQYPAHSLLSKGATIAGASDWPVSSLSPWKAIQQAVTRKGPQGVLNAGERLDRQTMFYAYTRNAARTIGLEHRIGSLEPGKQADFIVLDRDVFEVPETQLGETKVLKTWFAGKPVYSSEG” the value was “failed”. For “MKQSGTAAHKLTIFYVGMLLLFLIGLWLFATIGKELETNVVDKAMSLRGRGGLVGAFDSFSESVHHHFTDTIGVLLLQIIVILTVARLVAWFFGKIGQPTVIGEIVAGILLGPSLLGAVWPEAYEVLFPLSALANLELLSQFGLILFMFVIGMELNINDIKPRFSQSMIISHAGIFIPFLLGLLISYMTYKDYAADTTTFLPYGLFIGISMSITAFPVLARIIQERQLGKSHLGMLSISTAAAGDISAWLMLAGVMAITQSGSFLSAIYNFLFLILYLLVIFGLVRPFFKVIGRLYDNQEVVSKTMIGFIFVLLLASAYATELLSMHALFGAFMLGLVMPENVQFRKILTEKVEDVSLTLFLPLFFVSSGLQTKLGLLDSASLWLLTGAFTLIAIIGKFGGTYVAARFCGERKKASLYLGAFMNTRGLMELVVLAIGRELGILPPVIFTILVMMTLITTFMTTPLLRLIDLFFKRETELENAALQKENSGAVLLSFGRASSGAHLLHATDLLMHRGDEKPSVTALHITVGSDTNLTSSEVYEERAFAPIREESDRRRLPIRTLHHHTFEHPEAEVVRTVNAGGYSFLLVGAGINLSDRKSDRELLYFRKKLQRKLGPISIATPEALLNAHEMLRDKMHYFIEQTQCSVGIFIHRGFKHAGKVLLLMENEGDEELLAYARSLARNNGSVLDVLPETDGLPPTLSMGENRLKAGLPSTINISSYHFMLVSYRYWLRFAGECPSVIEHLPSTIIIHHRNDRSSTLKAAMI” the value was “failed”.

On to “MKRAVVVFSGGQDSTTCLIQALQDYDDVHCITFDYGQRHRAEIEVAQELSQKLGAAAHKVLDVGLLNELATSSLTRDSIPVPDYDANAQGIPNTFVPGRNILFLTLASIYAYQVGAEAVITGVCETDFSGYPDCRDEFVKALNQAIVLGIARDIRFETPLMWLNKAETWALADYYQQLDTVRYHTLTCYNGIKGDGCGQCAACHLRANGLAQYQKDAATVMASLKQKVGLR”, for which the protein production result is recorded as “not failed”. In the case of “MKRDVLYNRIILSVFLLSLVSCVAIYYAQQTNQYNTNFLGMQLVFLAIGTLTCFGVSRLPVEFLRHHAIWLYVIMVITLLGILIPNPLVQNINGATRWYRFAGLSFQPSEVVKSIFIFVLAHFAVKYQAQKWKQLGILTVLTGIVLLLIMKQPDLGTTIVYGVTALAIILLAIKSTKLMVGIITLILTAATVGMYVVVYHISLLEKIGFHAYQFSRIQTWLDPTTDPDAVYQLNLSMKAVGSGMMTGSSGTNAYIPESHTDMIFSTIGHQFGFVGVSLLLILFMVLIHQLIMAALLMKNTFSSLVLAGFAVSFAFNIFENIGMTVGLMPLTGIPLPFISYGGSAVLGNFIAVGVVLAIIRSDADLIEEK”, the protein production result is given as “failed”. Regarding “MKRFCNGLLASALVLSLLLTGCGAAGGQQPAQASGPEQPAVRTVTDAEGNVVEVPQDISRIAVTPLPWSSVVSAIDGGSQRLASINPGALKAYSGSFFAKLDKNYATLDDTSIGSDFSINVEELLNRQVQVVIIWEYQTAEAAKLKDVGIVPVMVKNGNVQELQDSFKAVGQLLGKEERAKWVNDEYAKAYEKMKSYGEQVKKADKPRVLYLKRSDLTLQGNDNFIKESMELAGADNIAAEAKSITMEEILKLDPEIILLSDFDKFLPQDLYENRIEGQDWSSVSAVVNKRVYKTPVGIYRWDAPGVETPLMMFWLGKMLQPEIFSEVDLKAEMKAFYQDVFDYSLTDEDFGQIFNDKANAASERRIS”, the protein production entry was “failed”. Turning to “MKRFIVGIDLGTSNTVVAYVEAGGDAIRVFDVDQLVAPGEVGARPLLPSARYHPAPGEFAPGELQLPWRDAEAGDAADAGDAPPAVIGTLARTLGAQVPGRLVTSAKSWLSHASVDRLAPILPWGAADAGGKVSPVAASASYLAHVRAAWNRRFPDAPLEQQDVVLTVPASFDDGARSLTLEAARLAKLPALRLLEEPQAAFYDWLFHHRDSLREELARTRLVLVCDVGGGTTDLTLIKVHAEDGEPQLTRIGVGDHLMLGGDNMDLALARVAEARLARDGGARLSAASLSQLVERCRAAKERLLDANPPDSVGVTLLGAGARLVGGARKTELGRAEVEQIVVDGFFPAGGPDDLPRRSRAALVEFGLPYAADAAVTRHVAAFLHRLAAQSRDALGAAGASDRALPVPDTLLLNGGVFRSRALAERVAGVLGDWRGQPLHVLRNDHPDVAVARGAVAYGLARAGRAPRIGGGSPRSYFLVVDDGAHASRGVCVLPRGTAEGHDVRLDDRVFALRLGHPVRFHLASTVADHAWRAGELADLGAGGFVRLPPVATVVRRQDAGGASERLVKLTTSLTEVGTLDMRCIATDDSSQRWQLEFQLRREPAGGGDAADASRHPSLDEAIELIDRSFGARLANVDPKEVRRLRGQLEQLLGARDAWDIALLRELFGALWARAGRRRRSADHERVWLNLAGYCVRPGFGHPLDDWRVAQLWTLFDDGIQYVNDAQVWSEWWTLWRRAAGGLDDDAQREALDAMAWLQEAARAKRPKLPFDAAKIGDMDIVRLSASLERVPVERKIALGEDLLARLRRPAENHQCWWAIGRIGARRPLYGSAHGVVPPDVAGRWLDAILAVDWKKVEPAAFAAAQIARMTGDRSSDVAADVRERVVRRLAAMNASDAWVRMVSEVVALDSADTGRAFGESLPAGLKLVAD”, the protein production result is “failed”. As for “MKRFIVRAVLILVSFVLLIQLWIFCSLAWWRTHPVETTMFMRLDYWSDSSKPIQQQWRDYDEISDNFKKAVVAAEDGKFVHHHGFDWEGIQYALEKNEKSGEVVNGGSTISQQLAKNLFLYNQRSLIRKGQEAIATWMMERMWSKQRILEVYMNSVQFGDHLYGVEAASHYYFHRSAQNLTRDQAAFLAALLPNPKYYQENRNDPRFKFKKRFTLKYMRYSEIP”, the entry is “failed”; as for “MKRFNVLKYIRTTKANIQTIAMPLTTKPLSLKINAALFDVDGTIIISQPAIAAFWRDFGKDKPYFDAEHVIHISHGWRTYDAIAKFAPDFADEEYVNKLEGEIPEKYGEHSIEVPGAVKLCNALNALPKEKWAVATSGTRDMAKKWFDILKIKRPEYFITANDVKQGKPHPEPYLKGRNGLGFPINEQDPSKSKVVVFEDAPAGIAAGKAAGCKIVGIATTFDLDFLKEKGCDIIVKNHESIRVGEYNAETDEVELIFDDYLYAKDDLLKW”, “not failed”. As for “MKRGRRASPAAGQHFKVLACEPCVSRRGIYTTLSLQLQKRALQGLQGGAGRRDLSLDRKGFHGLFLRCPFAALRCCQLRLLLGELLLSIFNLLLYFLDRIIEGRLARTANAATTTCCTSLAAFGGSLIRAFLCLSGGRRSSSRLGCFGVGRLDRDRQRAGVAVQCRSIDGSHDGLLGF”, the entry is “failed”.

The values above are taken from a protein production outcome set (Wang et al. 2014).
